According to patent publication US6979673 (University of Pennsylvania, dated 2005):

T1: PRL (human prolactin, untagged or form not specified: serum PRL; PRL added to cell cultures) (human, UniProt P01236 29-227)
T1 sequence (looked up): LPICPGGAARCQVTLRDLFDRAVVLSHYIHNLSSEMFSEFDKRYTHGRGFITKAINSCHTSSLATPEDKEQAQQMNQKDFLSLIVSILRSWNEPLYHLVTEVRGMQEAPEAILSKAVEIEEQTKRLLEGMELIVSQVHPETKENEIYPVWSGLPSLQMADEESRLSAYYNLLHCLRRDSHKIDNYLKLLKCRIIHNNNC

B1: myc-tagged PRL (recombinant human prolactin from Drosophila S2 cells) (ligand, UniProt P01236 29-227, looked up, not shown: small tags and cut ends)
chain: T1 sequence (looked up)
notes: mature
B2: His-tagged CypB (cyclophilin B, recombinant, V5/His-tagged, from Drosophila S2 cells) (enzyme)
chain: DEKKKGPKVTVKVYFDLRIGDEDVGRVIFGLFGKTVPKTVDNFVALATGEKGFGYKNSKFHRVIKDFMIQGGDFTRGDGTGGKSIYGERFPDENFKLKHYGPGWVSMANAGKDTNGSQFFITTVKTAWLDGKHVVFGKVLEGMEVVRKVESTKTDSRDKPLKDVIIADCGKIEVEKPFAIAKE
notes: also called wild-type CypB; sepharose-conjugated, recombinant CypB; not shown: C-terminal bifunctional V5/His-tag of vector pAc5/V5-HisA

Key:
[1] = target: recombinant form of cyclophilin family member CypA (UniProt P62937 1-165, limits assumed); assay: co-immunoprecipitation of admixed recombinant proteins
[2] = target: T1, PRL (human prolactin, untagged or form …); assay: cell-based or functional assay
growth hormone (GH) = growth hormone (GH) (human, UniProt P01241 27-217); assay: cell-based or functional assay
[3] = target: B1; assay: co-immunoprecipitation of admixed purified proteins, with cyclosporin A against without
Protocol: Immunoblots were blocked for one hour at room temperature with 5% milk in PBS containing 1% TWEEN-20 (PBST) and immunoblotted with a monoclonal anti-myc antibody (1:1000, mAb 9E10) for one hour. Immunoblots were analyzed by incubation with an anti-mouse secondary antibody conjugated to horseradish peroxidase (1:2000, Boehringer Mannheim) for one hour followed by incubation with ECL Plus (Amersham Pharmacia Biotech) amnd exposure to Biomax film (Kodak).

Chain of growth hormone (GH) (P01241 27-217 limits assumed): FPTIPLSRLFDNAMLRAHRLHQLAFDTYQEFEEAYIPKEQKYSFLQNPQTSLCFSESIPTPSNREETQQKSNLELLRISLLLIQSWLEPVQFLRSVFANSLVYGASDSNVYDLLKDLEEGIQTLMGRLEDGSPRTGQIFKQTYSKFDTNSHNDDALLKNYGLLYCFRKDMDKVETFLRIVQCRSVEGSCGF
Chain of recombinant form of cyclophilin family member CypA (P62937 whole entry): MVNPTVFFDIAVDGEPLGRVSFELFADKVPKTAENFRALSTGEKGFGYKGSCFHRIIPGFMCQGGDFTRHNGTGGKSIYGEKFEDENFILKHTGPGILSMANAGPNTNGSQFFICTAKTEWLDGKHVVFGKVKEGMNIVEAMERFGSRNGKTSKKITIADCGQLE

Row | binding result [1] | PRL-driven growth of Nb2 cells (3H-thymidine) [2] [fold] | GH-driven proliferation (growth hormone (GH)) [fold] | fold enhancement of the interaction on addition of CsA [3] [fold] | Binder
1 | no binding | – | – | – | B1
2 | – | ≤ 8 | 40 | ~10 | B2
